The experiment has as its target T1, full-length (FL) RasGAP purified from E. coli (UniProt P20936 1-1047).
T1 construct: p120RasGAP (RASA1), full length; also called purified FL RasGAP; source: E. coli, purified
T1 sequence (looked up): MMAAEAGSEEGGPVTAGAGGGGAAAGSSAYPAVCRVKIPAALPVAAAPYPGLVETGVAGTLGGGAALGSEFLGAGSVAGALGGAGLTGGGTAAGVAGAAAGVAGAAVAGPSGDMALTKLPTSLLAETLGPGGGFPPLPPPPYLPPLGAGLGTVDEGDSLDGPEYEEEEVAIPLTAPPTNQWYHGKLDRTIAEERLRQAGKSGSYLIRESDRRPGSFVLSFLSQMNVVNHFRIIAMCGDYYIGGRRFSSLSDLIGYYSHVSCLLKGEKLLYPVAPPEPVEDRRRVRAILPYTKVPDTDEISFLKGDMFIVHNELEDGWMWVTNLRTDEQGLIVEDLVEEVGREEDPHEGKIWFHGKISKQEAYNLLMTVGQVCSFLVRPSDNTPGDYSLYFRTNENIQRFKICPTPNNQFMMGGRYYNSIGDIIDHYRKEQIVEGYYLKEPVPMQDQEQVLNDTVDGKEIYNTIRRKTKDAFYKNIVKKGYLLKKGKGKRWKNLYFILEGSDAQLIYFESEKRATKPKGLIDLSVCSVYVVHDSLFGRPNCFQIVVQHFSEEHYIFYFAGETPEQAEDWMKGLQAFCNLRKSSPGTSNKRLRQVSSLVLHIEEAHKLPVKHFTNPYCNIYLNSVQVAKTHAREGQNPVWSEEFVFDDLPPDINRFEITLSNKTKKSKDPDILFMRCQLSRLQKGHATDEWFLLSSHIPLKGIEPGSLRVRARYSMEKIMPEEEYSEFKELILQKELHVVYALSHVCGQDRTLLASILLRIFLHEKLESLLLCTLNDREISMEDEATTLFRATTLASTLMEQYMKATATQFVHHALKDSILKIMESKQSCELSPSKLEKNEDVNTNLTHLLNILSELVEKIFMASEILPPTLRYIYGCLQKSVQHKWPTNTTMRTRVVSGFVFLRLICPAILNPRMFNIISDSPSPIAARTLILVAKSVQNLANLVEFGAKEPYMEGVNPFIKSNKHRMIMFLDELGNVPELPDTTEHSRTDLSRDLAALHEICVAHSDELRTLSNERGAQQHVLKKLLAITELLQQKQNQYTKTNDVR
As to the kind of experiment: pull-down; GST-merlin fragments pull down FL RasGAP purified from E. coli; western blot. The note with it: both partners purified. (In general: A western blot detects proteins with antibodies after separation by electrophoresis.)

B1: GST-merlin aa 1–73 (domain or fragment, UniProt P35240 1-73, looked up)
chain: MAGAIASRMSFSSLKRKQPKTFTVRIVTMDAEMEFNCEMKWKGKDLFDLVCRTLGLRETWFFGLQYTIKDTVA
notes: merlin (NF2), part of the F1 subdomain of the FERM domain, aa 1-73; also called aa 1–73 fragment; part of merlin's F1 subdomain
In the case of B1, the binding result is given as “binds”.

These data come from paper PMC6756068, “The NF2 tumor suppressor merlin interacts with Ras and RasGAP, which may modulate Ras signaling” (Oncogene, 2019).
